Reference: publication PMC2939592, “Laser ablation-based one-step generation and bio-functionalization of gold nanoparticles conjugated with aptamers”

Target: PSMA (prostate-specific membrane antigen) (human, UniProt Q04609 1-750)
Test: tissue microarray staining with silver enhancement; 1 mM MgCl2, 1 mM CaCl2; epithelial staining similar to anti-PSMA antibody; extra smooth muscle staining; miniStrep: 50 mM Tris-Cl pH 8.0, 150 mM NaCl, 10 mM MgCl2, room temperature (16 h in solution); anti-PSMA: 20 mM HEPES pH 7.4, 150 mM NaCl, 1 mM MgCl2, 1 mM CaCl2, 0.05% Tween 20, 20 C
Settings: protein: native; chain copies: 2; label: AuNP

PSMA (prostate-specific membrane antigen), sequence (Q04609 whole entry): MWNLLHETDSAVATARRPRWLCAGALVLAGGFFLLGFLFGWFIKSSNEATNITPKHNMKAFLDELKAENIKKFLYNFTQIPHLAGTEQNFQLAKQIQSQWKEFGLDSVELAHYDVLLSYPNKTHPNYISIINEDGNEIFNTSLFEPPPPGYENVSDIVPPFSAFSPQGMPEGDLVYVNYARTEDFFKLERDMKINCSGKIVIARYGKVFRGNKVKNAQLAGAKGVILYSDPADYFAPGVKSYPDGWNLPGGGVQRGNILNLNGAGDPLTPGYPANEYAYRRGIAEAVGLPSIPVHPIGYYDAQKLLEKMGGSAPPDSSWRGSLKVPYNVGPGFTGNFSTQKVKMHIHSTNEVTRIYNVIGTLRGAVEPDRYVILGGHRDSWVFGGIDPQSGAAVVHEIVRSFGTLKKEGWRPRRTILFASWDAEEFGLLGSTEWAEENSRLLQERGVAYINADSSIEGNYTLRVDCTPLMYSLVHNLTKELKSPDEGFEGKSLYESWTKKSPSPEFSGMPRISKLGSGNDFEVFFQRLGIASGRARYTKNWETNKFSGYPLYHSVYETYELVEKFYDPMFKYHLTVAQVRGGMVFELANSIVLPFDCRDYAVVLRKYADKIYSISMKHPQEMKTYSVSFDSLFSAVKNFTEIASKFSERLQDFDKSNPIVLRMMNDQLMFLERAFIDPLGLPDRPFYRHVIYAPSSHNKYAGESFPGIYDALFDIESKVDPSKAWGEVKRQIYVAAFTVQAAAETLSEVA

B1: anti-PSMA aptamer on AuNP (structured_RNA)
RNA: GGGAGGACGAUGCGGAUCAGCCAUGUUUACGUCACUCCUUGUCAAUCCUCAUCGGCAGACGACUCGCCCGA
modifications: 3'-(CH2CH2O)6-(CH2)6-S-S-(CH2)6OH, conjugated to gold nanoparticle; base/sugar modifications not stated
binding result: binds
